The target of series [1] is T1, RFX1 (Homo sapiens, UniProt P22670 1-979).
T1 sequence: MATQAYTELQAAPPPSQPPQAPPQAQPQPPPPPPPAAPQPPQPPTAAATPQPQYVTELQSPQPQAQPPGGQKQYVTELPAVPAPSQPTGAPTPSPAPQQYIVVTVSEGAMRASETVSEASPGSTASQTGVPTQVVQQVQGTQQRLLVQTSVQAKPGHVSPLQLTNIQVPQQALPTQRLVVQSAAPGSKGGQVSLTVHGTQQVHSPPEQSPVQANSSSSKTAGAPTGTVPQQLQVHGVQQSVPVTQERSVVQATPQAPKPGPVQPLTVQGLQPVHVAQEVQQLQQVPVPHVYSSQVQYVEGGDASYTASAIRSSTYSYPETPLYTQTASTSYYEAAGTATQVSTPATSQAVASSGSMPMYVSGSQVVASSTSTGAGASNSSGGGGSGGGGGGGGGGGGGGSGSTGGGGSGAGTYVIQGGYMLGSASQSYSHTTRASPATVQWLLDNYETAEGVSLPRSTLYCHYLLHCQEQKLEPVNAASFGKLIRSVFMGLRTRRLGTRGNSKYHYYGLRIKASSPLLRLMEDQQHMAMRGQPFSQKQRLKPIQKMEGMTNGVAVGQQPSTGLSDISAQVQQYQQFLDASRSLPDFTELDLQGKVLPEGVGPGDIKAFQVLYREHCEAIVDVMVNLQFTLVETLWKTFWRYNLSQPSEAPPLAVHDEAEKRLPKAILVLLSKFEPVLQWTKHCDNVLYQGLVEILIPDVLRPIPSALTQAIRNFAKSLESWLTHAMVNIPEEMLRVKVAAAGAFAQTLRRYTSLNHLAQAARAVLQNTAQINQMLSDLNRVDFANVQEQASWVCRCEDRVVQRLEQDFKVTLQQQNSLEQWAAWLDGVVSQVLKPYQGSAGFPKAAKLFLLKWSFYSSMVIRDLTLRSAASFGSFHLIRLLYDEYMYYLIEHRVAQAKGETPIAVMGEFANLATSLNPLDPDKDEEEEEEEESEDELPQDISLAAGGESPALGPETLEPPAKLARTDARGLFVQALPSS
Briefly: EMSA; shifted to C2 position; favored over wild-type; EMSA: 1x binding buffer from 10x (50 mM NaCl, 10 mM Tris-HCl pH 7.5, 2.5 mM MgCl2, 4% glycerol, 0.5 mM DTT), 0.05% NP40, poly(dI-dC), 20 ul, room temperature 1. Conditions: protein: ivt; tags: C-terminal myc in the source clone pCMV-RFX1; chain copies: 2; label: 32P end label (T4 kinase); blunt.

In series [2] the target is T1, RFX1. Briefly: EMSA; EMSA: 1x binding buffer from 10x (50 mM NaCl, 10 mM Tris-HCl pH 7.5, 2.5 mM MgCl2, 4% glycerol, 0.5 mM DTT), 0.05% NP40, poly(dI-dC), 20 ul, room temperature 1. The conditions noted are these: protein: ivt; tags: C-terminal myc in the source clone pCMV-RFX1; chain copies: 2; label: 32P end label (T4 kinase); blunt.

B1: A1613 mutant NRE probe (dsDNA)
DNA 1: GCACGTCGCATGGAAACCACCGTGAACGCC
DNA 2: GGCGTTCACGGTGGTTTCCATGCGACGTGC
For B1, the binding result with RFX1 [1] is given as “binds”.

B2: NS non-specific oligo (dsDNA)
DNA 1: GGAATTACGTGGCCACTCGAGGGAATTACG
DNA 2: CGTAATTCCCTCGAGTGGCCACGTAATTCC
For B2, the binding result in the series with RFX1 [2] is “no binding”.

These data come from paper PMC3140978, “The G1613A Mutation in the HBV Genome Affects HBeAg Expression and Viral Replication through Altered Core Promoter Activity”.
